Assay [1] deals with T1, recombinant human CTLA4 protein with human IgG1 Fc tag at the C-terminus (Acro biosystems, Cat#CT4-H5255) (human, UniProt P16410 37-162).
T1 sequence (looked up): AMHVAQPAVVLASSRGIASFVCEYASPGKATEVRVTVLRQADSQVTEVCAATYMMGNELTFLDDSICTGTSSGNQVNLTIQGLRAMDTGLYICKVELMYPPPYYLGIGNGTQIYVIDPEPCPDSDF
Nature of the assay: cell-based or functional assay.

The target in assay [2] is T2, recombinant human CTLA4-his protein (Acro biosystems, Cat#CT4-H5229) (human, UniProt P16410 37-162).
T2 construct: bought recombinant protein; not shown: his tag
T2 sequence (looked up): T1 sequence (looked up)
Description: BLI, Octet; antibody from cell supernatant on AHC sensor, CTLA4-his as analyte. On the procedure: (§1) Briefly, AHC biosensors (anti-human IgG Fc capture, from ForteBio) were presoaked with 10 mM glycine (pH 1.5) for 3 seconds, and then dipped in a well with running buffer (0.5% w/v BSA in PBST) for 3 seconds, the soaking and dipping steps were repeated for three times. […] A new baseline was run for 180 seconds in another well with running buffer. […] Finally, sensors were presoaked with 10 mM glycine (pH 1.5) for 3 seconds, and then were dipped in a well with running buffer for 3 seconds, the soaking and dipping steps repeated for three times. The association and dissociation curves were fit to a 1:1 Langmuir binding model using ForteBio Data Analysis 8.1.
For orientation: Biolayer interferometry detects binding as a change in optical thickness at a sensor tip.

The target in assay [3] is T2, recombinant human CTLA4-his protein …. Description: SPR, Biacore; antibody captured on anti-human IgG CM5 chip, CTLA4-his as analyte. The protocol:
(§2) Un-reacted moieties on the biosensor surface were blocked with ethanolamine. […] The antigen-antibody association kinetics was followed for 2 minutes and the dissociation kinetics was followed for 10 minutes. The association and dissociation curves were fit to a 1:1 Langmuir binding model using BIAcore evaluation software. […]

The target of assay [4] is T3, cynomolgus monkey CTLA4-his protein (Acro biosystems, Cat#CT4-C5227) (cynomolgus monkey, UniProt G7PL88 36-161).
T3 construct: bought recombinant protein; also called Cynomolgus CTLA4-his; not shown: his tag
T3 sequence: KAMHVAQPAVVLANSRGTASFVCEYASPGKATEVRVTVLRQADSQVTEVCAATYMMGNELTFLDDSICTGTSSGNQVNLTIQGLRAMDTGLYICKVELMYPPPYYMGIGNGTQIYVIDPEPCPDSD
The assay is described as above. The protocol: as §2

Assay [5] has as its target T1, recombinant human CTLA4 protein with …. Nature of the assay: capture ELISA (plate coated with goat anti-human IgG F(ab')2 per paragraph 181), biotin human CTLA4-Fc, streptavidin-HRP, OD(450-630). On the procedure: (§3) Plates were washed once with wash buffer (PBS+0.05% v/v Tween-20, PBST) and then blocked with 200 µl/well blocking buffer (PBST with 5% w/v non-fatty milk) for 2 hours at 37° C. […] After a final wash, plates were incubated with 100 µl/well substrate TMB (Innoreagents, Cat#TMB-S-002). The reaction was stopped in 15 minutes at room temperature with 50 µl/well 1M H₂SO₄, and the absorbance of the each well was read on a microplate reader using dual wavelength mode with 450 nm for TMB and 630 nm as the reference wavelength, then the OD (450-630) values were plotted against antibody concentration. Data was analyzed using Graphpad Prism software and EC₅₀ values were reported.
(§4) In the capture ELISA assay, the 96-well micro plates were coated with 2 µg/ml goat anti-human IgG (AffiniPure Goat Anti-Human IgG, F(ab′)₂ fragment specific, Jackson Immunoresearch, Cat#109-005-097) instead of the goat anti-mouse IgG F(ab′)₂ fragment, 100 µl/well.

Assay [6] shares this target. Description: cell based blocking FACS: antibody pre-mixed with human CTLA4-Fc, added to Daudi cells; blocked ligands: cell surface CD80/CD86. The protocol: (§5) Daudi cells were harvested from cell culture flasks at the log phase, washed twice and re-suspended in PBS containing 2% v/v Fetal Bovine Serum (FACS buffer). […] Cells were washed twice and re-suspended in FACS buffer. Fluorescence was measured using a Becton Dickinson FACS Canto II-HTS equipment. Data was analyzed using Graphpad Prism software and IC₅₀ values were reported.

Assay [7] shares this target. Description: competitive ELISA: antibody pre-mixed with biotin human CTLA4-Fc, added to plate coated with the benchmark; competitor: coated Yervoy. On the procedure: (§6) Plates were washed once with wash buffer, blocked with 200 µl PBST with 5% w/v non-fatty milk, incubated for 2 hours at 37° C., and washed 4 times.
(§7) After incubation at 37° C. for 40 minutes, plates were washed 4 times again using wash buffer. Then the plates were added and incubated with 100 µl/well streptavidin conjugated HRP (1:10000 dilution in PBST, Jackson Immuno Research, Cat#016-030-084, 100 µl/well) for 40 minutes at 37° C. Plates were finally washed using wash buffer. Finally, TMB was added and the reaction was stopped using 1M H₂SO₄, and the absorbance of the each well was read on a microplate reader using dual wavelength mode with 450 nm for TMB and 630 nm as the reference wavelength, then the OD (450-630) values were plotted against antibody concentration. Data was analyzed using Graphpad Prism software and IC₅₀ values were reported.
as §4
On the technique in general: An ELISA detects its analyte on a solid surface through an enzyme-linked reagent.

Assay [8] shares this target. Nature of the assay: cell-based or functional assay. The source holds these as a separate data set.
Assay [9] deals with T2, recombinant human CTLA4-his protein …. Description: SPR, Biacore T200; antibody captured, CTLA4-his as analyte. On the procedure:
(§8) Un-reacted moieties on the biosensor surface were blocked with ethanolamine. […] The antigen-antibody association kinetics was followed for 2 minutes and the dissociation kinetics was followed for 10 minutes. The association and dissociation curves were fit to a 1:1 Langmuir binding model using BIAcore evaluation software.
In general terms: Surface plasmon resonance follows binding to a sensor surface in real time, without labels.

In assay [10] the target is T3, cynomolgus monkey CTLA4-his protein …. Described as above. On the procedure: as §8
The target in assay [11] is T1, recombinant human CTLA4 protein with …. Nature of the assay: capture ELISA: antibody captured on anti-mouse IgG F(ab')2 coated plate, biotin human CTLA4-Fc 26 ng/ml, streptavidin-HRP, OD(450-630). The protocol:
as §3

Assay [12] shares this target. Nature of the assay: cell based blocking FACS: antibody pre-mixed with human CTLA4-Fc, added to Daudi cells; blocked ligands: cell surface CD80/CD86. The source holds these as a separate data set.
For assay [13] the target is unchanged. The assay is described as above. On the procedure:
as §5, §4
The source holds these as a separate data set.

Assay [14] shares this target. Description: cell based blocking FACS: antibody pre-mixed with human CTLA4-Fc (1 ug/mL), added to Daudi cells; blocked ligands: cell surface CD80/CD86. The protocol: as §5
For assay [15] the target is unchanged. Description: competitive ELISA: antibody pre-mixed with biotin human CTLA4-Fc (65 ng/ml), added to plate coated with the benchmark; competitor: coated Yervoy. On the procedure:
as §6, §7

Assay [16] has the same target. Description: capture ELISA: antibody captured on coated plate (anti-human IgG Fc for the chimeric antibodies), biotin human CTLA4-Fc, streptavidin-HRP, OD(450-630).
In assay [17] the target is T2, recombinant human CTLA4-his protein …. Description: BLI, Octet RED96; antibody on AHC sensor, CTLA4-his as analyte. On the procedure: as §1
Assay [18] shares this target. Description: BLI, Octet; antibody at 5 ug/ml on AHC sensor, CTLA4-his as analyte. The protocol:
as §1

Read-outs that look alike come from different tables or passages of the source.

B1: huD1D5-V9 (antibody, human IgG4 S228P, kappa, V domains shown)
VH: EVQLVESGGGLVKPGGSLRLSCAASGFTFSDYGMAWVRQAPGKGPEWVAFISNLAYSVYYADTETGRFTISRDDAKNSLYLQMNSLRAEDTAVYYCARSGLPYAMDYWGQGTTVTVSS
VL: DIQMTQSPSSLSASVGDRVTITCRASQDISNYLNWYQQKPGKVPKLLIYYISRLHSGVPSRFSGSGSGTDFTLTISSLQPEDVATYYCQQGRMLPWTFGGGTKVEIKR
notes: humanized IgG4/kappa; cell supernatant on Octet, purified antibody in Biacore, ELISA, FACS and the functional assay; also called hu CTLA4 D1D5-V9; huDID5-V9
Usually Kd stands for the free concentration of one partner at which half of the binding sites on the other are occupied at equilibrium, for simple one-to-one binding. Usually koff stands for a measure of how fast the partners let go of each other. Broadly, the kon is the rate constant with which the complex forms. One may read the EC50 as the midpoint of the concentration-response curve. For orientation: IC50 means the point on the concentration scale where inhibition reaches its midpoint. B1: the “EC50 of IL-2 release (GS-J1 T cells + GS-C1/CD80 cells + human CTLA4-Fc, IL-2 HTRF)” value (“EC50 of IL-2 release” for short) in assay [1] came to 27.3 nM. Moreover, the Kd was 4.37 nM in assay [2], 3.02 nM in assay [3] and 2.13 nM in [4]. Further, the figures for the koff in assay [2], in assay [3] and in [4] were 0.000471 s⁻¹, 0.000519 s⁻¹ and 0.000576 s⁻¹, respectively. The kon is 108000 M⁻¹ s⁻¹ in [2], 172000 M⁻¹ s⁻¹ in assay [3] and 271000 M⁻¹ s⁻¹ in assay [4]. Also, in assay [5], the concentration giving a half-maximal response (EC50) was found to be 0.516 nM. The IC50 in assay [6] worked out at 5.53 nM; in [7], 0.642 nM.

B2: mouse anti-CTLA4 monoclonal antibody C1D1 (antibody, V domains shown)
VH: EVKLDETGGGLVQPGRPLKLSCVASGFTFSDNWMNWVRQSPEKGLEWVAQIRNKPYNYETYYSDSVKGRFTISRDDSKSSVYLQMNNLRVEDMGIYYCTGGMDYWGQGTSVTVSS
VL: DIQMTQSPASLSASVGETVTITCGASEIIYGALNWYQQKQGKSPQLLIYGATNLADGMSSRFSGSGSGRQYSLKISSLHPDDAATYYCQKILSPPPWTFGGGTKLEIK
notes: mouse mAb purified from hybridoma supernatant
Turning to B2, the “EC50 of IL-2 release” value worked out at 35.1 nM in assay [8] and 30 nM in assay [1]. Besides, the Kd is 0.399 nM in [9] and 0.183 nM in assay [10]. Further, the koff is 0.0001 s⁻¹ in assay [9] and 8.76e-05 s⁻¹ in [10]. Moreover, the kon in assay [9] worked out at 251000 M⁻¹ s⁻¹; in [10], 478000 M⁻¹ s⁻¹. Moreover, the 50% effective concentration (EC50) was 0.121 nM in assay [5], 0.0479 nM in [11] and 0.445 nM in [16]. In addition, the IC50 is approximately 11.6 nM in [12]; approximately 9.72 nM in [13]; 0.8 nM in assay [7]; 6.22 nM in assay [14]; 0.338 nM in assay [15].

B3: chimeric C1D1 anti-CTLA4 antibody (antibody, human IgG4 S228P, kappa, V domains shown)
VH: B2 VH
VL: DIQMTQSPASLSASVGETVTITCGASEIIYGALNWYQQKQGKSPQLLIYGATNLADGMSSRFSGSGSGRQYSLKISSLHPDDAATYYCQKILSPPPWTFGGGTKLEIKR
notes: mouse variable domains on human IgG4/kappa, made in 293F cells
In the case of B3, in [1], the “EC50 of IL-2 release” value came to 34 nM. The Kd is 0.335 nM in assay [17], less than 0.001 nM in assay [18], 0.629 nM in assay [3] and 0.243 nM in assay [4]. Moreover, the koff in assay [17] is 0.000296 s⁻¹; in assay [18], less than 1e-07 s⁻¹; in assay [3] it was 0.000422 s⁻¹; in assay [4], 0.000398 s⁻¹. Moreover, the kon in assay [17] came to 884000 M⁻¹ s⁻¹; in assay [18] it was 525000 M⁻¹ s⁻¹; in [3] it was 670000 M⁻¹ s⁻¹; in [4], 1.64e+06 M⁻¹ s⁻¹. Also, the EC50 in assay [5] was 0.156 nM; in assay [16] it was 0.505 nM. The IC50 in [12] was 8.56 nM; in assay [13], approximately 9.96 nM; in assay [7] it was 2.11 nM.

Source of the values: patent publication US20230212304A1 (BIOSION, published 2023).
